Assay results as given in PMC5451212, “RISC-interacting clearing 3’- 5’ exoribonucleases (RICEs) degrade uridylated cleavage fragments to maintain functional RISC in Arabidopsis thaliana” (eLife, 2017).
Several values for one entry are separate records, joined by “and”; a condition that tells them apart may be missing. Identical values can stand only once.

Experiments:
6His-SUMO-RICE2 = molecular target: T1, 6His-SUMO-RICE2 (A. thaliana, UniProt Q9FNG3 1-206); assay: pull-down; His-SUMO baits and MBP-fusion preys purified from E. coli; prey preabsorbed on Ni-NTA resin, then incubated with bait 1 hr at room temperature and captured on Ni-NTA; 50 mM Tris pH 7.5, 150 mM NaCl, 0.2% glycerol, 0.6% Triton X-100, 0.5 mM β-mercaptoethanol; six washes with 300 mM NaCl; blot with anti-MBP; details: both partners purified
T1 construct: RICE2 (At5g06450; AtDECP), A. thaliana; open reading frame in pET28a-SUMO-DC; also called AtDECP; source: E. coli BL21 (DE3), purified (Ni-NTA); not shown: His6, N-terminal, kept; SUMO, N-terminal, kept
T1 sequence (looked up): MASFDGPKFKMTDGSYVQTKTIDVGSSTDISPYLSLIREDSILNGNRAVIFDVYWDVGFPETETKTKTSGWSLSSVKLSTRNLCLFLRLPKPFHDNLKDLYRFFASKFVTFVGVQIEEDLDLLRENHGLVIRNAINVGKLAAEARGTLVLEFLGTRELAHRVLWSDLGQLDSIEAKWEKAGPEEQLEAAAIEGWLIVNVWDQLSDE

6His-SUMO-RICE1 = molecular target: T2, 6His-SUMO-RICE1 (A. thaliana, UniProt Q9SF21 1-200); assay: as above; details: both partners purified
T2 construct: RICE1 (At3g11770), A. thaliana; open reading frame in pET28a-SUMO-DC; source: E. coli BL21 (DE3), purified (Ni-NTA); not shown: His6, N-terminal, kept; SUMO, N-terminal, kept
T2 sequence (looked up): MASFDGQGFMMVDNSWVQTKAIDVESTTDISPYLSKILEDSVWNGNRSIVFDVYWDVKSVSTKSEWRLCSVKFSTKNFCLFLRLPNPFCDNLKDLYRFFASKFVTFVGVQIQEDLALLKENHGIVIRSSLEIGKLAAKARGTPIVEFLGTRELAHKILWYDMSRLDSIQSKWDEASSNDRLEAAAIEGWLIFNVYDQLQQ

[1] = molecular target: the molecule itself; assay: SEC; purified proteins after SUMO protease cleavage on Superdex75 (1.6 x 60), 20 mM Tris-HCl pH 7.5, 150 mM NaCl
[2] = molecular target: the molecule itself; assay: crystal structure; RICE1 at 20 mg/ml, hanging drop at 16°C, ~30% pentaerythritol propoxylate (5/4 PO/OH), 0.2 M KCl, 50 mM HEPES pH 7.5; space group I4(1)22, three molecules in the asymmetric unit
[3] = molecular target: the molecule itself; assay: SEC; purified RICE1 D114A on Hiload 16/600 Superdex 200 instead of the routinely used Superdex 75

B1: MBP-AGO10 PAZ (337-474) (domain or fragment, A. thaliana, UniProt Q9XGW1 337-474, looked up)
chain: LPVIEFVAQLLGKDVLSKPLSDSDRVKIKKGLRGVKVEVTHRANVRRKYRVAGLTTQPTRELMFPVDENCTMKSVIEYFQEMYGFTIQHTHLPCLQVGNQKKASYLPMEACKIVEGQRYTKRLNEKQITALLKVTCQR
notes: AGO10, A. thaliana, residues 337-474 (PAZ); source: E. coli BL21 (DE3), purified (amylose resin); not shown: MBP, N-terminal, kept
binding result (6His-SUMO-RICE2): binds | binding result (6His-SUMO-RICE1): binds

B2: RICE1, purified recombinant (SUMO tag cleaved) (enzyme, A. thaliana, UniProt Q9SF21 1-200, looked up)
chain: MASFDGQGFMMVDNSWVQTKAIDVESTTDISPYLSKILEDSVWNGNRSIVFDVYWDVKSVSTKSEWRLCSVKFSTKNFCLFLRLPNPFCDNLKDLYRFFASKFVTFVGVQIQEDLALLKENHGIVIRSSLEIGKLAAKARGTPIVEFLGTRELAHKILWYDMSRLDSIQSKWDEASSNDRLEAAAIEGWLIFNVYDQLQQ
notes: RICE1 (At3g11770), A. thaliana; full-length cDNA in pET28a-SUMO (BamHI/SacI); also called wild type RICE1; source: E. coli BL21 (DE3), purified (Ni-NTA, SUMO protease cleavage, SEC); not shown: His6, N-terminal, cleaved; SUMO, N-terminal, cleaved
stoichiometry N [1]: ~6 | stoichiometry N [2]: 6

B3: RICE1 D114A, purified recombinant (enzyme, A. thaliana, UniProt Q9SF21 1-200, looked up)
chain: MASFDGQGFMMVDNSWVQTKAIDVESTTDISPYLSKILEDSVWNGNRSIVFDVYWDVKSVSTKSEWRLCSVKFSTKNFCLFLRLPNPFCDNLKDLYRFFASKFVTFVGVQIQEALALLKENHGIVIRSSLEIGKLAAKARGTPIVEFLGTRELAHKILWYDMSRLDSIQSKWDEASSNDRLEAAAIEGWLIFNVYDQLQQ
notes: RICE1 (At3g11770), A. thaliana; point mutant made on pET28a-SUMO-RICE1; source: E. coli BL21 (DE3), purified (Ni-NTA, SUMO protease cleavage, SEC); not shown: His6, N-terminal, cleaved; SUMO, N-terminal, cleaved
stoichiometry N [3]: 2 and 6
